Reference: the RNAGym collection of RNA variant scans (doi:10.1021/acssynbio.7b00057)

B1: Pistol ribozyme (parent)
chain: GGGUCGUUGUUCCAUAAUCGCGUGGAUAUGGCACGCAAGUUUCUACCGGGCACCGUAAAUGUCCGACUGGAGCCGUUCGGGCGGCUAUAAACAGACCUCAGGCCCGAAGCGUGGCGGCACCUGCCGCCGGUGGUAAAAAAGAUCGGAAGAGCACACGUCU

Variants of: B1
Test: aptazyme ON/OFF ratio, guanine; higher = stronger switching; co-transcriptional cleavage with and without guanine

| Variant | aptazyme ON/OFF ratio |
| --- | --- |
| GGGUCGUCACGGGAUAAUCGCGUGGAUAUGGCACGCAAGUUUCUACCGGGCACCGUAAAUGUCCGACUGGAGCCGUUCGGGCGGCUAUAAACAGACCUCAGGCCCGAAGCGUGGCGGCACCUGCCGCCGGUGGUAAAAAAGAUCGGAAGAGCACACGUCU | 1.23 |
| GGGUCGUCACGGUAUAAUCGCGUGGAUAUGGCACGCAAGUUUCUACCGGGCACCGUAAAUGUCCGACUGGAGCCGUUCGGGCGGCUAUAAACAGACCUCAGGCCCGAAGCGUGGCGGCACCUGCCGCCGGUGGUAAAAAAGAUCGGAAGAGCACACGUCU | 1.14 |
| GGGUCGUCACGGAAUAAUCGCGUGGAUAUGGCACGCAAGUUUCUACCGGGCACCGUAAAUGUCCGACUGGAGCCGUUCGGGCGGCUAUAAACAGACCUCAGGCCCGAAGCGUGGCGGCACCUGCCGCCGGUGGUAAAAAAGAUCGGAAGAGCACACGUCU | 1.42 |
| GGGUCGUCAGUACAUAAUCGCGUGGAUAUGGCACGCAAGUUUCUACCGGGCACCGUAAAUGUCCGACUGGAGCCGUUCGGGCGGCUAUAAACAGACCUCAGGCCCGAAGCGUGGCGGCACCUGCCGCCGGUGGUAAAAAAGAUCGGAAGAGCACACGUCU | 1.16 |
| GGGUCGUCAGUUCAUAAUCGCGUGGAUAUGGCACGCAAGUUUCUACCGGGCACCGUAAAUGUCCGACUGGAGCCGUUCGGGCGGCUAUAAACAGACCUCAGGCCCGAAGCGUGGCGGCACCUGCCGCCGGUGGUAAAAAAGAUCGGAAGAGCACACGUCU | 1.36 |
| GGGUCGUCAGUGCAUAAUCGCGUGGAUAUGGCACGCAAGUUUCUACCGGGCACCGUAAAUGUCCGACUGGAGCCGUUCGGGCGGCUAUAAACAGACCUCAGGCCCGAAGCGUGGCGGCACCUGCCGCCGGUGGUAAAAAAGAUCGGAAGAGCACACGUCU | 1.15 |
| GGGUCGUCACGAAAUAAUCGCGUGGAUAUGGCACGCAAGUUUCUACCGGGCACCGUAAAUGUCCGACUGGAGCCGUUCGGGCGGCUAUAAACAGACCUCAGGCCCGAAGCGUGGCGGCACCUGCCGCCGGUGGUAAAAAAGAUCGGAAGAGCACACGUCU | 1.44 |
| GGGUCGUCACGAUAUAAUCGCGUGGAUAUGGCACGCAAGUUUCUACCGGGCACCGUAAAUGUCCGACUGGAGCCGUUCGGGCGGCUAUAAACAGACCUCAGGCCCGAAGCGUGGCGGCACCUGCCGCCGGUGGUAAAAAAGAUCGGAAGAGCACACGUCU | 1.4 |
| GGGUCGUCACGAGAUAAUCGCGUGGAUAUGGCACGCAAGUUUCUACCGGGCACCGUAAAUGUCCGACUGGAGCCGUUCGGGCGGCUAUAAACAGACCUCAGGCCCGAAGCGUGGCGGCACCUGCCGCCGGUGGUAAAAAAGAUCGGAAGAGCACACGUCU | 1.27 |
| GGGUCGUCACGCAAUAAUCGCGUGGAUAUGGCACGCAAGUUUCUACCGGGCACCGUAAAUGUCCGACUGGAGCCGUUCGGGCGGCUAUAAACAGACCUCAGGCCCGAAGCGUGGCGGCACCUGCCGCCGGUGGUAAAAAAGAUCGGAAGAGCACACGUCU | 1.2 |
| GGGUCGUCACGCGAUAAUCGCGUGGAUAUGGCACGCAAGUUUCUACCGGGCACCGUAAAUGUCCGACUGGAGCCGUUCGGGCGGCUAUAAACAGACCUCAGGCCCGAAGCGUGGCGGCACCUGCCGCCGGUGGUAAAAAAGAUCGGAAGAGCACACGUCU | 1.44 |
| GGGUCGUCACGCUAUAAUCGCGUGGAUAUGGCACGCAAGUUUCUACCGGGCACCGUAAAUGUCCGACUGGAGCCGUUCGGGCGGCUAUAAACAGACCUCAGGCCCGAAGCGUGGCGGCACCUGCCGCCGGUGGUAAAAAAGAUCGGAAGAGCACACGUCU | 1.35 |
| GGGUCGUCACCGUAUAAUCGCGUGGAUAUGGCACGCAAGUUUCUACCGGGCACCGUAAAUGUCCGACUGGAGCCGUUCGGGCGGCUAUAAACAGACCUCAGGCCCGAAGCGUGGCGGCACCUGCCGCCGGUGGUAAAAAAGAUCGGAAGAGCACACGUCU | 1.16 |
| GGGUCGUCAGUGUAUAAUCGCGUGGAUAUGGCACGCAAGUUUCUACCGGGCACCGUAAAUGUCCGACUGGAGCCGUUCGGGCGGCUAUAAACAGACCUCAGGCCCGAAGCGUGGCGGCACCUGCCGCCGGUGGUAAAAAAGAUCGGAAGAGCACACGUCU | 1.22 |
| GGGUCGUCAGUGAAUAAUCGCGUGGAUAUGGCACGCAAGUUUCUACCGGGCACCGUAAAUGUCCGACUGGAGCCGUUCGGGCGGCUAUAAACAGACCUCAGGCCCGAAGCGUGGCGGCACCUGCCGCCGGUGGUAAAAAAGAUCGGAAGAGCACACGUCU | 1.14 |
| GGGUCGUCAGUGGAUAAUCGCGUGGAUAUGGCACGCAAGUUUCUACCGGGCACCGUAAAUGUCCGACUGGAGCCGUUCGGGCGGCUAUAAACAGACCUCAGGCCCGAAGCGUGGCGGCACCUGCCGCCGGUGGUAAAAAAGAUCGGAAGAGCACACGUCU | 1.11 |
| GGGUCGUCACCUCAUAAUCGCGUGGAUAUGGCACGCAAGUUUCUACCGGGCACCGUAAAUGUCCGACUGGAGCCGUUCGGGCGGCUAUAAACAGACCUCAGGCCCGAAGCGUGGCGGCACCUGCCGCCGGUGGUAAAAAAGAUCGGAAGAGCACACGUCU | 1.08 |
| GGGUCGUCAGUAAAUAAUCGCGUGGAUAUGGCACGCAAGUUUCUACCGGGCACCGUAAAUGUCCGACUGGAGCCGUUCGGGCGGCUAUAAACAGACCUCAGGCCCGAAGCGUGGCGGCACCUGCCGCCGGUGGUAAAAAAGAUCGGAAGAGCACACGUCU | 1.27 |

| Variant | aptazyme ON/OFF ratio |
| --- | --- |
| GGGUCGUCAGUAUAUAAUCGCGUGGAUAUGGCACGCAAGUUUCUACCGGGCACCGUAAAUGUCCGACUGGAGCCGUUCGGGCGGCUAUAAACAGACCUCAGGCCCGAAGCGUGGCGGCACCUGCCGCCGGUGGUAAAAAAGAUCGGAAGAGCACACGUCU | 1.28 |
| GGGUCGUCAGUAGAUAAUCGCGUGGAUAUGGCACGCAAGUUUCUACCGGGCACCGUAAAUGUCCGACUGGAGCCGUUCGGGCGGCUAUAAACAGACCUCAGGCCCGAAGCGUGGCGGCACCUGCCGCCGGUGGUAAAAAAGAUCGGAAGAGCACACGUCU | 1.1 |
| GGGUCGUCAGUCCAUAAUCGCGUGGAUAUGGCACGCAAGUUUCUACCGGGCACCGUAAAUGUCCGACUGGAGCCGUUCGGGCGGCUAUAAACAGACCUCAGGCCCGAAGCGUGGCGGCACCUGCCGCCGGUGGUAAAAAAGAUCGGAAGAGCACACGUCU | 1.57 |
| GGGUCGUCACGUGAUAAUCGCGUGGAUAUGGCACGCAAGUUUCUACCGGGCACCGUAAAUGUCCGACUGGAGCCGUUCGGGCGGCUAUAAACAGACCUCAGGCCCGAAGCGUGGCGGCACCUGCCGCCGGUGGUAAAAAAGAUCGGAAGAGCACACGUCU | 1.15 |
| GGGUCGUCACGUAAUAAUCGCGUGGAUAUGGCACGCAAGUUUCUACCGGGCACCGUAAAUGUCCGACUGGAGCCGUUCGGGCGGCUAUAAACAGACCUCAGGCCCGAAGCGUGGCGGCACCUGCCGCCGGUGGUAAAAAAGAUCGGAAGAGCACACGUCU | 1.42 |
| GGGUCGUCACGUUAUAAUCGCGUGGAUAUGGCACGCAAGUUUCUACCGGGCACCGUAAAUGUCCGACUGGAGCCGUUCGGGCGGCUAUAAACAGACCUCAGGCCCGAAGCGUGGCGGCACCUGCCGCCGGUGGUAAAAAAGAUCGGAAGAGCACACGUCU | 1.51 |
| GGGUCGUCAGUUGAUAAUCGCGUGGAUAUGGCACGCAAGUUUCUACCGGGCACCGUAAAUGUCCGACUGGAGCCGUUCGGGCGGCUAUAAACAGACCUCAGGCCCGAAGCGUGGCGGCACCUGCCGCCGGUGGUAAAAAAGAUCGGAAGAGCACACGUCU | 1.2 |
| GGGUCGUCAGUUAAUAAUCGCGUGGAUAUGGCACGCAAGUUUCUACCGGGCACCGUAAAUGUCCGACUGGAGCCGUUCGGGCGGCUAUAAACAGACCUCAGGCCCGAAGCGUGGCGGCACCUGCCGCCGGUGGUAAAAAAGAUCGGAAGAGCACACGUCU | 1.19 |
| GGGUCGUCACCUAAUAAUCGCGUGGAUAUGGCACGCAAGUUUCUACCGGGCACCGUAAAUGUCCGACUGGAGCCGUUCGGGCGGCUAUAAACAGACCUCAGGCCCGAAGCGUGGCGGCACCUGCCGCCGGUGGUAAAAAAGAUCGGAAGAGCACACGUCU | 1.1 |
| GGGUCGUCACCUGAUAAUCGCGUGGAUAUGGCACGCAAGUUUCUACCGGGCACCGUAAAUGUCCGACUGGAGCCGUUCGGGCGGCUAUAAACAGACCUCAGGCCCGAAGCGUGGCGGCACCUGCCGCCGGUGGUAAAAAAGAUCGGAAGAGCACACGUCU | 1.03 |
| GGGUCGUCACCUUAUAAUCGCGUGGAUAUGGCACGCAAGUUUCUACCGGGCACCGUAAAUGUCCGACUGGAGCCGUUCGGGCGGCUAUAAACAGACCUCAGGCCCGAAGCGUGGCGGCACCUGCCGCCGGUGGUAAAAAAGAUCGGAAGAGCACACGUCU | 1.09 |
| GGGUCGUCACCCUAUAAUCGCGUGGAUAUGGCACGCAAGUUUCUACCGGGCACCGUAAAUGUCCGACUGGAGCCGUUCGGGCGGCUAUAAACAGACCUCAGGCCCGAAGCGUGGCGGCACCUGCCGCCGGUGGUAAAAAAGAUCGGAAGAGCACACGUCU | 1.01 |
| GGGUCGUCACCCAAUAAUCGCGUGGAUAUGGCACGCAAGUUUCUACCGGGCACCGUAAAUGUCCGACUGGAGCCGUUCGGGCGGCUAUAAACAGACCUCAGGCCCGAAGCGUGGCGGCACCUGCCGCCGGUGGUAAAAAAGAUCGGAAGAGCACACGUCU | 1.01 |
| GGGUCGUCACCCGAUAAUCGCGUGGAUAUGGCACGCAAGUUUCUACCGGGCACCGUAAAUGUCCGACUGGAGCCGUUCGGGCGGCUAUAAACAGACCUCAGGCCCGAAGCGUGGCGGCACCUGCCGCCGGUGGUAAAAAAGAUCGGAAGAGCACACGUCU | 1.02 |
| GGGUCGUCACGGCAUAAUCGCGUGGAUAUGGCACGCAAGUUUCUACCGGGCACCGUAAAUGUCCGACUGGAGCCGUUCGGGCGGCUAUAAACAGACCUCAGGCCCGAAGCGUGGCGGCACCUGCCGCCGGUGGUAAAAAAGAUCGGAAGAGCACACGUCU | 1.27 |
| GGGUCGUCACGACAUAAUCGCGUGGAUAUGGCACGCAAGUUUCUACCGGGCACCGUAAAUGUCCGACUGGAGCCGUUCGGGCGGCUAUAAACAGACCUCAGGCCCGAAGCGUGGCGGCACCUGCCGCCGGUGGUAAAAAAGAUCGGAAGAGCACACGUCU | 1.25 |
| GGGUCGUCACGUCAUAAUCGCGUGGAUAUGGCACGCAAGUUUCUACCGGGCACCGUAAAUGUCCGACUGGAGCCGUUCGGGCGGCUAUAAACAGACCUCAGGCCCGAAGCGUGGCGGCACCUGCCGCCGGUGGUAAAAAAGAUCGGAAGAGCACACGUCU | 1.29 |
| GGGUCGUCACGCCAUAAUCGCGUGGAUAUGGCACGCAAGUUUCUACCGGGCACCGUAAAUGUCCGACUGGAGCCGUUCGGGCGGCUAUAAACAGACCUCAGGCCCGAAGCGUGGCGGCACCUGCCGCCGGUGGUAAAAAAGAUCGGAAGAGCACACGUCU | 1.19 |
